Paper PMC11367644, “Structural basis for TNIP1 binding to FIP200 during mitophagy” (The Journal of Biological Chemistry, 2024)
Read-outs that look alike come from different tables or passages of the source. Square brackets hold non-standard residues; d marks the D form. Ends that are not written are not given here. Peptide text beside a SMILES is read from it. pS = N[C@@H](COP(=O)(O)O)C(=O)O

Experiments:
[1] = molecular target: T1, FIP200 claw domain F1582A (Homo sapiens, UniProt Q8TDY2, F1582A); test: ITC with FIP200 claw domain mutant F1582A; conditions: 20 °C, buffer B pH 7.0, N.D. = no detectable binding
T1 construct: human FIP200 claw domain1490–1594 was cloned; SUMO (N, cleaved yes); made in house; host or cells: Escherichia coli Rosetta (DE3)
T1 sequence (Q8TDY2 1490-1594 F1582A): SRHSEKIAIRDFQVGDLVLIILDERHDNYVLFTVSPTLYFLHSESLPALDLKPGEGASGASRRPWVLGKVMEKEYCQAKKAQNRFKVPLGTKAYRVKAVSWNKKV
Description: (§1) DNA fragment of human FIP200 claw domain1490–1594 was cloned into a modified pET28a (Novagen) plasmid, which contained an N-terminal SUMO-tag and a ULP1 protease cleavage site. All mutants were generated using a MutanBEST Kit (TaKaRa) and confirmed by DNA sequencing. The proteins were expressed in Escherichia coli Rosetta (DE3) cells (Novagen) cultured in LB medium at 37 °C to A600 = 1.0 and then shifted to 16 °C for 24 h after induction with 0.2 mM IPTG. Bacterial pellets were resuspended in buffer A (50 mM NaH2PO4 and 1 M NaCl, pH 7.0) and lysed by sonication. The crude lysate was then centrifuged at 14,000 rpm for 30 min at 4 °C. The supernatant was applied to a Ni-NTA column (QIAGEN), followed by size-exclusion chromatography using a Superdex 200 (GE Healthcare) column. After cleavage with ULP1 protease overnight at 16 °C to remove the SUMO-tag, an additional purification step was performed with a HiTrap SP FF column. The purified protein was concentrated to ∼20 mg/ml in buffer B (50 mM NaH2PO4, 150 mM NaCl, pH 7.0) and stored at −80 °C.
(§2) ITC assays were performed on a Microcal PEAQ-ITC instrument (Malvern) at 20 °C. The concentrations of proteins were determined spectrophotometrically. […] Thermodynamic data were analyzed with a single binding site model using MicroCal PEAQ-ITC Analysis Software provided by the manufacturer (Malvern).

[2] = molecular target: T2, FIP200 claw domain F1574A (Homo sapiens, UniProt Q8TDY2, F1574A); test: ITC with FIP200 claw domain mutant F1574A; conditions: 20 °C, buffer B pH 7.0, N.D. = no detectable binding
T2 construct: human FIP200 claw domain1490–1594 was cloned; SUMO (N, cleaved yes); made in house; host or cells: Escherichia coli Rosetta (DE3)
T2 sequence (Q8TDY2 1490-1594 F1574A): as the sequence (Q8TDY2 1490-1594 F1582A) above, with F85A, A93F counted along it
Description: as §1, §2

[3] = molecular target: T3, FIP200 claw domain K1569A (Homo sapiens, UniProt Q8TDY2, K1569A); test: ITC with FIP200 claw domain mutant K1569A; conditions: 20 °C, buffer B pH 7.0, N.D. = no detectable binding
T3 construct: human FIP200 claw domain1490–1594 was cloned; SUMO (N, cleaved yes); made in house; host or cells: Escherichia coli Rosetta (DE3)
T3 sequence (Q8TDY2 1490-1594 K1569A): as the sequence (Q8TDY2 1490-1594 F1582A) above, with K80A, A93F counted along it
Description: as §1, §2

[4] = molecular target: T4, FIP200 claw domain K1568A (Homo sapiens, UniProt Q8TDY2, K1568A); test: ITC with FIP200 claw domain mutant K1568A; assay type: binding; conditions: 20 °C, buffer B pH 7.0, fitted value ± error
T4 construct: human FIP200 claw domain1490–1594 was cloned; SUMO (N, cleaved yes); made in house; host or cells: Escherichia coli Rosetta (DE3)
T4 sequence (Q8TDY2 1490-1594 K1568A): as the sequence (Q8TDY2 1490-1594 F1582A) above, with K79A, A93F counted along it
Description: as §1, §2

[5] = molecular target: T5, FIP200 claw domain Y1564A (Homo sapiens, UniProt Q8TDY2, Y1564A); test: ITC with FIP200 claw domain mutant Y1564A; conditions: 20 °C, buffer B pH 7.0, N.D. = no detectable binding
T5 construct: human FIP200 claw domain1490–1594 was cloned; SUMO (N, cleaved yes); made in house; host or cells: Escherichia coli Rosetta (DE3)
T5 sequence (Q8TDY2 1490-1594 Y1564A): as the sequence (Q8TDY2 1490-1594 F1582A) above, with Y75A, A93F counted along it
Description: as §1, §2

[6] = molecular target: T6, FIP200 claw domain R1573E (Homo sapiens, UniProt Q8TDY2, R1573E); test: ITC with FIP200 claw domain mutant R1573E; conditions: 20 °C, buffer B pH 7.0, N.D. = no detectable binding
T6 construct: human FIP200 claw domain1490–1594 was cloned; SUMO (N, cleaved yes); made in house; host or cells: Escherichia coli Rosetta (DE3)
T6 sequence (Q8TDY2 1490-1594 R1573E): as the sequence (Q8TDY2 1490-1594 F1582A) above, with R84E, A93F counted along it
Description: as §1, §2

[7] = test system: FIP200 claw domain / p-CCPG1 FIR2 complex; test: Competitive fluorescence polarization: displacement of FITC-pCCPG1 FIR2 from FIP200 claw domain; assay type: binding, human; conditions: fit of Equation 3 to competitive FP data; FIP200 claw 4 μM, 50 nM FITC-pCCPG1 FIR2, buffer B, triplicate
Text: Next, we investigated the binding of TNIP1 peptides to FIP200 in distinct states while competing with p-CCPG1 FIR2 peptide. Assuming that in solution, there is a thermodynamic equilibrium as expressed in Equation 1:(1) FIP200−TNIP1_pS123⇆w2u2FIP200⇄w1u1FIP200/p−CCPG1FIR2 where u1 and u2 represent the rates of forming the FIP200/p-CCPG1 FIR2 and FIP200-TNIP1_pS123 binding complexes, respectively, and w1 or w2 is the corresponding dissociation rate, then the probability of forming FIP200/p-CCPG1 FIR2 ( P1 ) can be expressed in the following form:(2) P1=u1w2/w1w2+u1w2+[…]
We further assumed that the binding process is diffusion-controlled, meaning that u1 and u2 are proportional to the concentrations of p-CCPG1 FIR2 and TNIP1_pS123, respectively. In addition, w1 and w2 are determined by the activation barrier in the dissociation free energy profile using the transition state theory. Consequently, the following two relations hold. […]
For competitive FP experiments, FIP200 claw domain at 4 μM and 50 nM FITC-pCCPG1 FIR2 in buffer B were mixed with increasing concentrations of unlabeled TNIP1_FIR^long or TNIP1 FIR_pS123^long peptides, respectively. The samples were measured with the CLARIOsta plate reader with FITC-fluorescence polarization filter set. […]

FIP200 claw domain (WT) = molecular target: T7, FIP200 claw domain (WT) (Homo sapiens, UniProt Q8TDY2); test: ITC of TNIP1/CCPG1 FIR peptides with FIP200 claw domain WT; conditions: FIP200 claw WT 0.25 mM, peptide 4 mM, 20 °C, buffer B (50 mM NaH2PO4, 150 mM NaCl, pH 7.0), single binding site model, fitted value ± SD, N.D. = no detectable binding
T7 construct: human FIP200 claw domain1490–1594 was cloned; SUMO (N, cleaved yes); made in house; host or cells: Escherichia coli Rosetta (DE3)
Description: as §1, §2

TNIP1_pS123 peptide = test: ITC
[8] = molecular target: T8, FIP200 claw domain (1490-1594) (human, UniProt Q8TDY2 1490-1594); test: ITC; peptide (4 mM) injected into FIP200 claw protein (0.25 mM); 20 °C; buffer B (50 mM NaH2PO4, 150 mM NaCl, pH 7.0); single binding site model
T8 construct: the ITC N counts peptide per claw chain; also called FIP200 claw domain WT; WT; source: E. coli Rosetta (DE3), purified (Ni-NTA, Superdex 200, HiTrap SP FF); not shown: SUMO, N-terminal, cleaved

[9] = molecular target: T9, human FIP200 claw domain (1490-1594) (human, UniProt Q8TDY2 1490-1594); test: ITC
T9 chain: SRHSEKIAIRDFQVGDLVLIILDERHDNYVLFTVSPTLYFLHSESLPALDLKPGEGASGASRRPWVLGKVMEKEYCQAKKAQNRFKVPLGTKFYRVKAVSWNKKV

[10] = molecular target: T10, FIP200 claw domain (1490-1594) Q1566A (human, UniProt Q8TDY2 1490-1594, Q1566A); test: ITC; peptide (4 mM) injected into FIP200 claw protein (0.25 mM); 20 °C; buffer B (50 mM NaH2PO4, 150 mM NaCl, pH 7.0); single binding site model; conditions: both partners purified
T10 construct: source: E. coli Rosetta (DE3), purified (Ni-NTA, Superdex 200, HiTrap SP FF); not shown: SUMO, N-terminal, cleaved

[11] = molecular target: T11, FIP200 claw domain (1490-1594) D1516A (human, UniProt Q8TDY2 1490-1594, D1516A); test: as above; conditions: both partners purified
T11 construct: source: E. coli Rosetta (DE3), purified (Ni-NTA, Superdex 200, HiTrap SP FF); not shown: SUMO, N-terminal, cleaved

[12] = molecular target: T12, FIP200 claw domain (1490-1594) R1514A (human, UniProt Q8TDY2 1490-1594, R1514A); test: as above; conditions: both partners purified
T12 construct: source: E. coli Rosetta (DE3), purified (Ni-NTA, Superdex 200, HiTrap SP FF); not shown: SUMO, N-terminal, cleaved

[13] = molecular target: the molecule itself; test: crystal structure; FIP200 claw and TNIP1 FIR peptide mixed at a 1:5 molar ratio, 15 mg/ml; vapor diffusion at 16 °C or 20 °C; molecular replacement
[14] = molecular target: T13, FIP200 claw domain (1490-1594) K1568A (human, UniProt Q8TDY2 1490-1594, K1568A); test: ITC; peptide (4 mM) injected into FIP200 claw protein (0.25 mM); 20 °C; buffer B (50 mM NaH2PO4, 150 mM NaCl, pH 7.0); single binding site model; conditions: both partners purified
T13 construct: source: E. coli Rosetta (DE3), purified (Ni-NTA, Superdex 200, HiTrap SP FF); not shown: SUMO, N-terminal, cleaved

With CC(C)[C@H](NC(=O)[C@@H](NC(=O)[C@H](CCC(=O)O)NC(=O)[C@H](Cc1ccccc1)NC(=O)[C@H](CCC(=O)O)NC(=O)[C@H](COP(=O)(O)O)NC(=O)[C@H](CO)NC(=O)[C@@H](NC(=O)CNC(=O)[C@H](CO)NC(=O)[C@@H](N)CO)[C@@H](C)O)C(C)C)C(=O)O [TNIP1_pS123] (H-SSGTS[pS]EFEVV-OH) the KD [1] was “significantly abolished”, the KD [2] was “significantly abolished” and the KD [3] was “significantly abolished”. For the same molecule, the KD [4] was “Weak binding”, the KD [5] was “significantly abolished” and the KD [6] was “significantly abolished”.

“SSGTSSEFEVVTPEEQ [TNIP1^long, unmodified TNIP1 FIR peptide with an elongated C terminus]” was tested, and the “a0 (constant of Equation 3, y1 = 1/(1+a0[TNIP1]))” value [7] was 0.0006 µM⁻¹ and the KD (FIP200 claw domain (WT)) was “Weak binding”.

“human FIP200 claw domain (1490-1594) (from UniProt Q8TDY2) Q1566A” gave a ratio to parent (TNIP1_pS123 peptide) of 0.79.

In the case of SSGTSSEFEVV [TNIP1], the KD (FIP200 claw domain (WT)) is reported as “no detectable binding affinity”.

SSGT[pS]SEFEVV [TNIP1_pS122 peptide] gave a stoichiometry N [8] of 0.96 and a Kd [9] of 260 µM.

SSGT[pS][pS]EFEVV [TNIP1_pS122pS123 peptide] was tested, and the stoichiometry N [8] was 1.33 and the Kd [9] was 195 µM.

B1: TNIP1_pS123 peptide (peptide)
peptide: SSGTS[pS]EFEVV
notes: FIR motif of TNIP1; source: synthetic peptide (GL Biochem, Shanghai)
For B1, the stoichiometry N [8] was 1.01, the Kd [10] was 126 µM and the “stoichiometry N” value [10] was 1.49. The Kd [11] was 175 µM, the “stoichiometry N” value [11] was 1.18 and the Kd [12] was 178 µM. The “stoichiometry N” value [12] was 1.48 and the Kd [9] was 160 µM.

B2: human FIP200 claw domain (1490-1594) (domain or fragment, UniProt Q8TDY2 1490-1594, looked up)
chain: T9 chain
notes: Forms a homodimer in the crystals; source: E. coli Rosetta (DE3), purified (Ni-NTA, Superdex 200, HiTrap SP FF); not shown: SUMO, N-terminal, cleaved
B2: binds [13].

B3: TNIP1_pS123^long peptide (peptide)
peptide: SSGTS[pS]EFEVVTPEEQ
notes: FIR motif of TNIP1 with an elongated C terminus (T129-Q133); source: synthetic peptide (GL Biochem, Shanghai)
B3 was tested, and the Kd ([8]; both partners purified) was 45.4 µM, the “stoichiometry N” value ([8]; both partners purified) was 1.03 and the Kd [14] was 133 µM. The “stoichiometry N” value [14] was 0.93, the Kd [10] was 45 µM and the “stoichiometry N” value [10] was 0.96. For the same molecule, the Kd [11] was 35 µM, the “stoichiometry N” value [11] was 0.98 and the Kd [12] was 43.8 µM. For the same molecule, the “stoichiometry N” value [12] was 0.97.

B4: CCPG1 FIR2 peptide (unmodified) (peptide)
peptide: TASDDSDIVTLEPPK
notes: FIR2 motif of the autophagy receptor CCPG1; source: synthetic peptide (GL Biochem, Shanghai)
B4 was tested, and the Kd ([8]; both partners purified) was 84.3 µM and the “stoichiometry N” value ([8]; both partners purified) was 0.96.

B5: pCCPG1 FIR2 peptide (peptide)
peptide: TASDD[pS]DIVTLEPPK
notes: as for B4
In the case of B5, the Kd ([8]; both partners purified) is reported as 9.3 µM and the “stoichiometry N” value ([8]; both partners purified) is reported as 1.1.
